Test results taken from patent publication US20250163140A1.

B1: antibody I100Y_G2_LS (antibody)
heavy: QVQLVQSGAEVKKPGASVKVSCKASGYTFTNHYMHWVRQAPGQGLEWMGIINPISGSTSNAQKFQGRVTMTRDTSTSTVYMELSSLRSEDTAVYYCARDYVDAFDFWGQGTMVTVSSASTKGPSVFPLAPCSRSTSESTAALGCLVKDYFPEPVTVSWNSGALTSGVHTFPAVLQSSGLYSLSSVVTVPSSNFGTQTYTCNVDHKPSNTKVDKTVERKCCVECPPCPAPPVAGPSVFLFPPKPKDTLMISRTPEVTCVVVDVSHEDPEVQFNWYVDGVEVHNAKTKPREEQFNSTFRVVSVLTVVHQDWLNGKEYKCKVSNKGLPAPIEKTISKTKGQPREPQVYTLPPSREEMTKNQVSLTCLVKGFYPSDIAVEWESNGQPENNYKTTPPMLDSDGSFFLYSKLTVDKSRWQQGNVFSCSVLHEALHSHYTQKSLSLSPGK
light: AIQLTQSPSSLSASVGDRVTITCRASQGISSALVWYQQKPGKAPKLLIYDASSLESGVPSRFSGSGSGTDFTLTISSLQPEDFATYYCQQFNDYFTFGPGTKVDIK
B2: antibody I100Y_IgG4PE_R409K_LS (antibody)
heavy: QVQLVQSGAEVKKPGASVKVSCKASGYTFTNHYMHWVRQAPGQGLEWMGIINPISGSTSNAQKFQGRVTMTRDTSTSTVYMELSSLRSEDTAVYYCARDYVDAFDFWGQGTMVTVSSASTKGPSVFPLAPCSRSTSESTAALGCLVKDYFPEPVTVSWNSGALTSGVHTFPAVLQSSGLYSLSSVVTVPSSSLGTKTYTCNVDHKPSNTKVDKRVESKYGPPCPPCPAPEFEGGPSVFLFPPKPKDTLMISRTPEVTCVVVDVSQEDPEVQFNWYVDGVEVHNAKTKPREEQFNSTYRVVSVLTVLHQDWLNGKEYKCKVSNKGLPSSIEKTISKAKGQPREPQVYTLPPSQEEMTKNQVSLTCLVKGFYPSDIAVEWESNGQPENNYKTTPPVLDSDGSFFLYSKLTVDKSRWQEGNVFSCSVLHEALHSHYTQKSLSLSLGK
light: B1 light

Biological target: Recombinant Human FGF-23 (R&D Systems, Cat No. 2604-FG-025/CF) (human) (UniProt Q9GZV9)
Sequence (Q9GZV9 25-251 limits assumed): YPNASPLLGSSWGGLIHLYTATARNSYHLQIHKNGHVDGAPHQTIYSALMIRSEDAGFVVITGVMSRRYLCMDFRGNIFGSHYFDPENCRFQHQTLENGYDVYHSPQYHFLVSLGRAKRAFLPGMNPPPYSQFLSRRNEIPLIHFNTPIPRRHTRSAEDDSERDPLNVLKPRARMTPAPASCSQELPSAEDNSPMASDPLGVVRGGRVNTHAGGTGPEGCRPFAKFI
Assay: cell-based or functional assay

Binder	FGF23 neutralizing activity IC50 (luciferase promoter assay) [ng/mL]
B1	4.4
B2	2.9
